The record followed here is PMC11784139.

Where a chain is given by its changes, count along the chain named.

What all share (experiment): EMSA
What all share (conditions): EMSA: 5 mM Tris-HCl pH 7.5, 0.1 mM EDTA, 5 mM MgCl2, 10 mM KCl, 0.2 mM DTT, 30 C, 30 min, native PAGE in 0.5x TBE; MST: 50 mM PBS pH 7.2-7.4, temperature not …
(Mobility shift assays separate free from complexed probe on a gel.)

In data set [1] the test system is T1, 6xHis-APR1 T306L T306L (Acinetobacter venetianus RAG-1), ORF:d17a4b85.
T1 sequence: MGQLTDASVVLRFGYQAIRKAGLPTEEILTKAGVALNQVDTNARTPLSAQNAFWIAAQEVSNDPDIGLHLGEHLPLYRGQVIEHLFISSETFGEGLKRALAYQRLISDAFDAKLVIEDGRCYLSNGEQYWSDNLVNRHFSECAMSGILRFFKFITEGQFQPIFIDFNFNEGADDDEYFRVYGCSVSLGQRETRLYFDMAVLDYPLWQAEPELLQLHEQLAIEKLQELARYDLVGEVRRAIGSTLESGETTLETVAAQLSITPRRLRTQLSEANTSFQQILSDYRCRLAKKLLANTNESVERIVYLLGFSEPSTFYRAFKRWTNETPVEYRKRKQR

For data set [2], the system named is T2, 6xHis-APR1 F314S F314S (Acinetobacter venetianus RAG-1), ORF:d17a4b85.
T2 sequence: T1 sequence with L306T, F314S

The subject of data set [3] is T3, MBP-APR1 L265S L265S (Acinetobacter venetianus RAG-1), ORF:d17a4b85.
T3 sequence: T1 sequence with L265S, L306T

Data set [4] concerns T4, 6xHis-APR1 F318S F318S (Acinetobacter venetianus RAG-1), ORF:d17a4b85.
T4 sequence: T1 sequence with L306T, F318S

In data set [5] the test system is T5, 6xHis-APR1 V303E V303E (Acinetobacter venetianus RAG-1), ORF:d17a4b85.
T5 sequence: T1 sequence with V303E, L306T

Turning to “AGCCTACCTGATGATCAAATTGGAAAGGCGCAAATTATAGTCAATTTATTTGAAATTTACAAGACGCTCTCTTAGCAAAGCTTGTACAGATGAATTGGAAAAAACTGTCAGACAATCCTCATTTTTTTTTAACAAAAGAAGCAGAATAGTGTTGTCAGTTTGGTCAATCAACGTTAATCTAAAATTATTGTTTATTGTCACAATAACGTATCTACAGGGAAGGGCACTGC (double strand) [apR1 promoter]”, the binding entry was “binds” in data set [1]; “no binding” in data set [2]; “no binding” in data set [3]; “no binding” in data set [4]; “no binding” in data set [5].
